The target of assay [1] is mCherry (purified, His-tag cleaved off). As to the kind of experiment: OCTET BLI; His-tagged nanobody on Ni-NTA biosensor, tag-free mCherry in solution.
The target is the same in assay [2]. As to the kind of experiment: BLI (Octet RED96e); His-tagged nanobody on Ni-NTA sensor, tagless mCherry in solution; no illumination. In general terms: Biolayer interferometry detects binding as a change in optical thickness at a sensor tip.
Assay [3] addresses iLID-CAAX. Kind of assay: cytosol-to-membrane translocation in NIH3T3 cells.
The target of assay [4] is iLID-CAAX. As to the kind of experiment: cytosol-to-membrane redistribution in NIH3T3 cells.
Assay [5] concerns the target T1, His6-YFP-SH2 (human, UniProt P00519 112-232).
T1 construct: domain: SH2 domain; also called 6xHis-YFP-protein fusion
T1 sequence (looked up): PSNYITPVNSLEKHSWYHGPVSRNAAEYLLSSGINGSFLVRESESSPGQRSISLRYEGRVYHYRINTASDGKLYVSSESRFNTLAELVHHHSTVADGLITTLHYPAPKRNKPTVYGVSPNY
As to the kind of experiment: pull-down on Co2+ agarose beads with His6-YFP-SH2, crude chimera lysate, light or dark, SDS-PAGE.
Procedure: (§1) The His6-YFP-SH2 supernatant was then mixed with 4.5 mL of a 50% suspension of Co-charged agarose resin (Talo®), previously equilibrated in Binding buffer, and incubated at 4° C., rocking for 45 min. The suspension was sedimented by gravity and the supernatant discarded. The beads were then thoroughly washed with Binding buffer with approximately 50 times the resin or column volume. The beads (now with His6-YFP-SH2 bound) were then finally resuspended in Binding buffer to a total volume of 13.5 mL. The bead suspension was equally divided into 9 conical tubes of 15 mL (having each 1.5 mL of the bead suspension). Four of these tubes were used for experiments under blue light with LED panels (450 nm and intensity of 45 μmol/m²/s) while the other four were used for experiments in the dark (wrapped in aluminum foil). Experiments were performed in a dark room and red light was used occasionally for visualization purposes. The remaining tube was left as a control for His6-YFP-SH2 binding. Samples of 2.5 mL of bacterial clarified lysates containing either the monobody HA4 supernatant or each one of the chimeras were added to separate tubes of resin. The mixtures were then incubated for 45 minutes (at 4° C. and constant vertical rotation of 20 rpm) under blue light or dark conditions. […]

For assay [6], the target named is T1, His6-YFP-SH2. Described as above. This is another data set of the same source.
Procedure: as §1
In assay [7] the target is T2, YFP-SH2 (human, UniProt P00519 112-232).
T2 construct: domain: SH2 domain; also called SH2-tagged YFP; EZ-L703
T2 sequence (looked up): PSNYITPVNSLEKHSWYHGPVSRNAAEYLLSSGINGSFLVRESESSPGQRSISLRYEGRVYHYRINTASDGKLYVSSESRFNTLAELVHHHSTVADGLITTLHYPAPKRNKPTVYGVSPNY
Kind of assay: BLI; Kd of OptoMBV416L (light) against Kd of OptoMBC450V (dark).
Procedure: (§2) Ni-NTA sensors (ForteBio) were first equilibrated using Buffer A for 10 minutes prior the measurement. A volume of 200 μL of Buffer A or protein solutions (previously dialyzed with Buffer A when needed) was added to clear, 96-well plates. During the experimental run, the Ni-NTA sensors were first immersed in Buffer A to record the baseline. […] The sensors were then transferred back into Buffer A to remove unbound protein. […] To measure the unbinding rate constant (koff), the sensors were then moved to wells containing Buffer A to trigger dissociation of YFP-SH2. To measure binding kinetics of the light state, the lid of the Octet remained open during the measurement and a blue LED panel was held above the 96-well plate, maintaining constant blue illumination for the duration of the experiment. […] The raw binding and unbinding data were simultaneously fit to models of the binding and unbinding reactions:

Assay [8] concerns the target T2, YFP-SH2. As to the kind of experiment: BLI; binder on Ni-NTA sensor, YFP-SH2 in solution; lit conformation, 450 nm light.
Procedure: as §2
Assay [9] addresses T2, YFP-SH2. As to the kind of experiment: BLI; binder on Ni-NTA sensor, YFP-SH2 in solution; lit conformation, ambient light.
Procedure: as §2
The target of assay [10] is T2, YFP-SH2. As to the kind of experiment: BLI; His-tagged binder on Ni-NTA sensor, YFP-SH2 in solution; light conformation; average of three measurements.
Procedure: as §2
Assay [11] deals with T2, YFP-SH2. As to the kind of experiment: LCAC in batch, Talon resin; share of the resin-bound target eluted by blue light.
Procedure: (§3) After elution, beads were washed with imidazole to recover any remaining protein bound to the beads in order to estimate the capacity and yields of the resin.
(§4) The Resin was rotated in 50 mL conical tubes (covered with aluminum foil) at room temperature for 20 minutes and then poured in 20 mL BioRad glass Econo-Columns and washed with Buffer A (50 column volumes). […] The mixture was then vertically rotated gently for 45 minutes in 15 ml conical tubes.
Assay [12] addresses T3, SH2-PDC1 (human; Saccharomyces cerevisiae).
T3 construct: No His tag; also called SH2-tagged Pdc1p; EZ-L886
T3 chain: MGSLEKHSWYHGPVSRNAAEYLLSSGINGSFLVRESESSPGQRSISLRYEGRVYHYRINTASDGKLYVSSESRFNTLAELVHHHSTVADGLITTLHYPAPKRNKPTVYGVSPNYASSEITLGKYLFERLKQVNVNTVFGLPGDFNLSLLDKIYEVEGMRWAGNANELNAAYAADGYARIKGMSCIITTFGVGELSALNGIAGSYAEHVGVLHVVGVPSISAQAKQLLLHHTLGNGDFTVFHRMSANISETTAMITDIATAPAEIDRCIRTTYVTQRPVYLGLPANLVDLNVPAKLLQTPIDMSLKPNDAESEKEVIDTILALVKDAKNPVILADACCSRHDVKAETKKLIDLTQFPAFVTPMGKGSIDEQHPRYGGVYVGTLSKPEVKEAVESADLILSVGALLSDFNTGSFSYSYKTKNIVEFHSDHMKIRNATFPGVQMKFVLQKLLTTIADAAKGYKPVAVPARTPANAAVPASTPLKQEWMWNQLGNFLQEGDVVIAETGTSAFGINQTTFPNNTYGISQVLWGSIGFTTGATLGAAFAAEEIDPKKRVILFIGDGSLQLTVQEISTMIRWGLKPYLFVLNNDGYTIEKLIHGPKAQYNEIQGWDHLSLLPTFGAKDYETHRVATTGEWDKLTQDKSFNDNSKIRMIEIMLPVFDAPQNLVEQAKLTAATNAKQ
The assay is described as above.
Procedure: as §3, §4

Assay [13] deals with T2, YFP-SH2. As to the kind of experiment: BLI; SUMO-tagged binder on Ni-NTA sensor, YFP-SH2 in solution; lit conformation, ambient light.
Procedure: as §2
Assay [14] concerns the target T2, YFP-SH2. As to the kind of experiment: LCAC in batch; His-tag bound OptoMB on Talon cobalt resin, target from crude E. coli lysate bound in the dark.
Procedure: as §3, §4
In assay [15] the target is T3, SH2-PDC1. Described as above.
Procedure: as §3, §4
The target of assay [16] is T2, YFP-SH2. As to the kind of experiment: BLI; binder on Ni-NTA sensor, YFP-SH2 in solution; dark conformation, 450 nm light.
Procedure: as §2
The target of assay [17] is T2, YFP-SH2. Kind of assay: BLI; binder on Ni-NTA sensor, YFP-SH2 in solution; dark conformation, ambient light.
Procedure: as §2
Assay [18] concerns the target T2, YFP-SH2. As to the kind of experiment: BLI; His-tagged binder on Ni-NTA sensor, YFP-SH2 in solution; dark conformation; average of three measurements.
Procedure: as §2
In assay [19] the target is T1, His6-YFP-SH2. As to the kind of experiment: pull-down on His6-YFP-SH2 cobalt beads, SDS-PAGE densitometry.
Procedure: as §1
The target in assay [20] is T2, YFP-SH2. As to the kind of experiment: BLI; binder on Ni-NTA sensor, YFP-SH2 in solution; ambient light.
The target of assay [21] is T2, YFP-SH2. As to the kind of experiment: BLI (Octet RED96e); His-tagged binder on Ni-NTA sensor, YFP-SH2 in solution.

This note sets out measurements from patent US20200291075A1 (TRUSTEES OF PRINCETON UNIVERSITY, published 2020).

Several values for one entry are separate records, joined by “and”; a condition that tells them apart may be missing. Equal values may be shown once. Read-outs that look alike come from different tables or passages of the source.

In the case of “LaM8 anti-mCherry nanobody (His-tagged, purified) (VHH)”, in [1], the Kd (as a rule, the equilibrium constant for the complex coming apart) was determined as 0.322 µM; the koff – broadly, a measure of how fast the partners let go of each other – was 0.02 s⁻¹; the on-rate constant (kon) (in general, the second-order rate constant of association) was determined as 75200 M⁻¹ s⁻¹. In assay [2], the Kd is 0.23 µM, the koff came out at 0.018 s⁻¹ and the kon was 76000 M⁻¹ s⁻¹.

For the molecule BFP-SSPB-SOScat, the change in cytosolic intensity between light and dark with iLID-CAAX [3] came to 60%. In addition, in the assay with iLID-CAAX [4], the change in cytosolic intensity between light conditions turned out to be 60%.

B1: HA4-AsLOV2 chimera, SG65 insertion (designed binder)
chain: GSSVSSVPTKLEVVAATPTSLLISWDAPMSSSSVYYYRITYGETGGNSPVQEFTVPYSSSTATISGLERIEKNFVITDPRLPDNPIIFASDSFLQLTEYSREEILGRNCRFLQGPETDRATVRKIRDAIDNQTEVTVQLINYTKSGKKFWNLFHLQPMRDQKGDVQYFIGVQLDGTEHVRDAAEREGVMLIKKTAENIDEAAGGLSPGVDYTITVYAWGEDSAGYMFMYSPISINYRTC
With B1, in the assay with His6-YFP-SH2 [5], the binding result is listed as “no binding”.

B2: HA4-AsLOV2 chimera, SA84 insertion (designed binder)
chain: GSSVSSVPTKLEVVAATPTSLLISWDAPMSSSSVYYYRITYGETGGNSPVQEFTVPYSSSTATISGLSPGVDYTITVYAWGEDSGLERIEKNFVITDPRLPDNPIIFASDSFLQLTEYSREEILGRNCRFLQGPETDRATVRKIRDAIDNQTEVTVQLINYTKSGKKFWNLFHLQPMRDQKGDVQYFIGVQLDGTEHVRDAAEREGVMLIKKTAENIDEAAGAGYMFMYSPISINYRTC
With B2, in the assay with His6-YFP-SH2 [6], the binding result is “no binding”.

B3: OptoMBV416L (designed binder)
chain: HHHHHHGSGSGSDQEAKPSTEDLGDKKEGEYIKLKVIGQDSSEIHFKVKMTTHLKKLKESYCQRQGVPMNSLRFLFEGQRIADNHTPKELGMEEEDVIEVYQEQTGGHMASKGSSVSSVPTKLEVVAATPTSLLISWDAPMSSSSVYYYRITYGETGGNSPVQEFTVPYSGLERIEKNFLITDPRLPDNPIIFASDSFLQLTEYSREEILGRNCRFLQGPETDRATVRKIRDAIDNQTEVTVQLINYTKSGKKFWNLFHLQPMRDQKGDVQYFIGVQLDGTEHVRDAAEREGVMLIKKTAENIDEAAGSSTATISGLSPGVDYTITVYAWGEDSAGYMFMYSPISINYRTC
notes: T0006 lists the V416L plasmid with His6-SUMO; also called OptoMBV416L 1; OptoMBV416L 2
In the case of B3, the “fold change in binding affinity, light against dark” value in the assay with YFP-SH2 [7] was ~330 fold. In addition, in the assay with YFP-SH2 [8], the equilibrium dissociation constant (Kd) is 60 µM and 42 µM; the koff is 0.2 s⁻¹ and 0.24 s⁻¹; the kon is 3300 M⁻¹ s⁻¹ and 5800 M⁻¹ s⁻¹. In the assay with YFP-SH2 [9], this molecule had a Kd of 87 µM, a koff of 0.25 s⁻¹ and a kon of 2900 M⁻¹ s⁻¹. Further, in the assay with YFP-SH2 [10], the equilibrium dissociation constant (Kd) was 63 µM, the koff stood at 0.23 s⁻¹ and the kon came out at 4000 M⁻¹ s⁻¹.

B4: OptoMBV416I_G528A_N538E (His6-SUMO tagged) (designed binder)
chain: HHHHHHGSGSGSDQEAKPSTEDLGDKKEGEYIKLKVIGQDSSEIHFKVKMTTHLKKLKESYCQRQGVPMNSLRFLFEGQRIADNHTPKELGMEEEDVIEVYQEQTGGHMASKGSSVSSVPTKLEVVAATPTSLLISWDAPMSSSSVYYYRITYGETGGNSPVQEFTVPYSGLERIEKNFIITDPRLPDNPIIFASDSFLQLTEYSREEILGRNCRFLQGPETDRATVRKIRDAIDNQTEVTVQLINYTKSGKKFWNLFHLQPMRDQKGDVQYFIGVQLDGTEHVRDAAEREAVMLIKKTAEEIDEAAGSSTATISGLSPGVDYTITVYAWGEDSAGYMFMYSPISINYRTC
notes: also called OptoMBTriple
Turning to B4, the “Yield (% of recovery from the resin)” value with YFP-SH2 [11] came to 29.8%. Also, the “Yield (% of recovery from the resin)” value with SH2-PDC1 [12] turned out to be 39%. Moreover, in the assay with YFP-SH2 [13], the Kd was > 100 µM; the koff is 0.1 s⁻¹ and 0.13 s⁻¹; the kon is < 1000 M⁻¹ s⁻¹. In the assay with YFP-SH2 [14], the “Resin Capacity” value is 4.5 mg/mL. Further, the “Resin Capacity” value with SH2-PDC1 [15] stood at 5.24 mg/mL.

B5: OptoMBC450V (designed binder)
chain: HHHHHHSSGENLYFQGHASGSSVSSVPTKLEVVAATPTSLLISWDAPMSSSSVYYYRITYGETGGNSPVQEFTVPYSGLERIEKNFVITDPRLPDNPIIFASDSFLQLTEYSREEILGRNVRFLQGPETDRATVRKIRDAIDNQTEVTVQLINYTKSGKKFWNLFHLQPMRDQKGDVQYFIGVQLDGTEHVRDAAEREGVMLIKKTAENIDEAAGSSTATISGLSPGVDYTITVYAWGEDSAGYMFMYSPISINYRTC
notes: also called OptoMBC450V 1; OptoMBC450V 2
Take B5: the Kd with YFP-SH2 [16] is 0.27 µM; with YFP-SH2 [18], 0.19 µM. Besides, the koff in the assay with YFP-SH2 [16] was 0.013 s⁻¹; in the assay with YFP-SH2 [17], 0.006 s⁻¹ and 0.013 s⁻¹; with YFP-SH2 [18] it was 0.01 s⁻¹. Also, the on-rate (kon) with YFP-SH2 [16] is 48000 M⁻¹ s⁻¹; in the assay with YFP-SH2 [17], 110000 M⁻¹ s⁻¹ and 56000 M⁻¹ s⁻¹; with YFP-SH2 [18] it was 71000 M⁻¹ s⁻¹.

B6: HA4-AsLOV2 chimera, SS58 insertion, untagged (OptoMB) (designed binder)
chain: GSSVSSVPTKLEVVAATPTSLLISWDAPMSSSSVYYYRITYGETGGNSPVQEFTVPYSGLERIEKNFVITDPRLPDNPIIFASDSFLQLTEYSREEILGRNCRFLQGPETDRATVRKIRDAIDNQTEVTVQLINYTKSGKKFWNLFHLQPMRDQKGDVQYFIGVQLDGTEHVRDAAEREGVMLIKKTAENIDEAAGSSTATISGLSPGVDYTITVYAWGEDSAGYMFMYSPISINYRTC
notes: Used as crude E. coli extract in the pull-down screen; also called alphaSH2 OptoMonobody; EZ-L706
B6: in the assay with His6-YFP-SH2 [19], the “band intensity, dark against light” value was ~2.1 fold.

B7: Monobody HA4 (His6-tagged, purified) (designed binder)
chain: HHHHHHSSGENLYFQGHASGSSVSSVPTKLEVVAATPTSLLISWDAPMSSSSVYYYRITYGETGGNSPVQEFTVPYSSSTATISGLSPGVDYTITVYAWGEDSAGYMFMYSPISINYRTC
In the assay with YFP-SH2 [20], B7 showed a Kd of 0.28 µM, a koff of 0.0145 s⁻¹ and a kon of 51000 M⁻¹ s⁻¹. In the assay with YFP-SH2 [21], the Kd is 0.23 µM, the koff stood at 0.0145 s⁻¹ and the kon was 63100 M⁻¹ s⁻¹.

B8: HA4-AsLOV2 chimera, NS47 insertion (designed binder)
chain: GSSVSSVPTKLEVVAATPTSLLISWDAPMSSSSVYYYRITYGETGGNGLERIEKNFVITDPRLPDNPIIFASDSFLQLTEYSREEILGRNCRFLQGPETDRATVRKIRDAIDNQTEVTVQLINYTKSGKKFWNLFHLQPMRDQKGDVQYFIGVQLDGTEHVRDAAEREGVMLIKKTAENIDEAAGSPVQEFTVPYSSSTATISGLSPGVDYTITVYAWGEDSAGYMFMYSPISINYRTC
Take B8: the binding result with His6-YFP-SH2 [6] is reported as “no binding”.
